B1: BBSome complex member BBS5 (Homo sapiens), Q8N3I7 (parent)
chain: MSVLDALWEDRDVRFDLSAQQMKTRPGEVLIDCLDSIEDTKGNNGDRGRLLVTNLRILWHSLALSRVNVSVGYNCILNITTRTANSKLRGQTEALYILTKCNSTRFEFIFTNLVPGSPRLFTSVMAVHRAYETSKMYRDFKLRSALIQNKQLRLLPQEHVYDKINGVWNLSSDQGNLGTFFITNVRIVWHANMNDSFNVSIPYLQIRSIKIRDSKFGLALVIESSQQSGGYVLGFKIDPVEKLQESVKEINSLHKVYSASPIFGVDYEMEEKPQPLEALTVEQIQDDVEIDSDGHTDAFVAYFADGNKQQDREPVFSEELGLAIEKLKDGFTLQGLWEVMS
partner: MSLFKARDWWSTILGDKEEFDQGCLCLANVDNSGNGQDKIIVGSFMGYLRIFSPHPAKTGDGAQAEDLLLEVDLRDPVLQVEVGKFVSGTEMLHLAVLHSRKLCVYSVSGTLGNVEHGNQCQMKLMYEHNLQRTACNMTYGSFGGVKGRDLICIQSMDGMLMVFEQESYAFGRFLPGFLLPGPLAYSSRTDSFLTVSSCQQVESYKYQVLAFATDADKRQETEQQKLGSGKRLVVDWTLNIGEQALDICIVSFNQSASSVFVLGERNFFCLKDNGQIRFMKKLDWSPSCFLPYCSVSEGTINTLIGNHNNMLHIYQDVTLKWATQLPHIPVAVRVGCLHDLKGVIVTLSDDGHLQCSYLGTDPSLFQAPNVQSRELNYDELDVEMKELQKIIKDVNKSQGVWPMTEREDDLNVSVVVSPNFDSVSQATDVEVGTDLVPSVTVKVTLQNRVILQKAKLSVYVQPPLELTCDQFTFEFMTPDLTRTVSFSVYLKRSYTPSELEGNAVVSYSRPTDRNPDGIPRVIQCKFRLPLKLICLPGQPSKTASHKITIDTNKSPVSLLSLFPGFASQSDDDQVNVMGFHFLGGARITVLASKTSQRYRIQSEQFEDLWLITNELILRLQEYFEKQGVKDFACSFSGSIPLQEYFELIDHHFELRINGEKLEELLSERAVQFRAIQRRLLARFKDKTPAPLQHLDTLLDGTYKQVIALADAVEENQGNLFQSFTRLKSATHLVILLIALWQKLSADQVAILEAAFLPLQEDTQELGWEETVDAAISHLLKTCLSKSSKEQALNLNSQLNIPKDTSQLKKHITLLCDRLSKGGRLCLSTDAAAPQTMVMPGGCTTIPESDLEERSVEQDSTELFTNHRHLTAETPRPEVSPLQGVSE

Variants of: B1
Details: with pthb1_human BBS9, Q3SYG4

Variant	effect of a mutation on the interaction
MSVLDALWEDRDVRFDLSAQQMKTRPGEVLIDCLDSIEDTKGNNGDRGRLLVTNLRILWHSLALSRVNVSVGYNCILNITTRTANSKLRGQTEALYILTKCNSTRFEFIFTNLVPGSPRLFTSVMAVHRAYETSKMYRDFKLRSALIQNKQLRLLPQEHVYDKINGVWNLSSDQGNLGTFFITEVRIVWHANMNDSFNVSIPYLQIRSIKIRDSKFGLALVIESSQQSGGYVLGFKIDPVEKLQESVKEINSLHKVYSASPIFGVDYEMEEKPQPLEALTVEQIQDDVEIDSDGHTDAFVAYFADGNKQQDREPVFSEELGLAIEKLKDGFTLQGLWEVMS [N184E]	disrupting interaction strength
MSVLDALWEDRDVRFDLSAQQMKTRPGEVLIDCLDSIEDTKGNNGDRGRLLVTNLRILWHSLALSRVNVSVGYNCILNITTRTANSKLRGQTEALYILTKCNSTRFEFIFTNLVPGSPRLFTSVMAVHRAYETSKMYRDFKLRSALIQNKQLRLLPQEHVYDKINGVWNLSSDQGNLGTFFITKVRIVWHANMNDSFNVSIPYLQIRSIKIRDSKFGLALVIESSQQSGGYVLGFKIDPVEKLQESVKEINSLHKVYSASPIFGVDYEMEEKPQPLEALTVEQIQDDVEIDSDGHTDAFVAYFADGNKQQDREPVFSEELGLAIEKLKDGFTLQGLWEVMS [N184K]	with no effect
MSVLDALWEDRDVRFDLSAQQMKTRPGEVLIDCLDSIEDTKGNNGDRGRLLVTNLRILWHSLALSRVNVSVGYNCILNITTRTANSKLRGQTEALYILTKCNSTRFEFIFTNLVPGSPRLFTSVMAVHRAYETSKMYRDFKLRSALIQNKQLRLLPQEHVYDKINGVWNLSSDQGNLGTFFITNARIVWHANMNDSFNVSIPYLQIRSIKIRDSKFGLALVIESSQQSGGYVLGFKIDPVEKLQESVKEINSLHKVYSASPIFGVDYEMEEKPQPLEALTVEQIQDDVEIDSDGHTDAFVAYFADGNKQQDREPVFSEELGLAIEKLKDGFTLQGLWEVMS [V185A]	with no effect
MSVLDALWEDRDVRFDLSAQQMKTRPGEVLIDCLDSIEDTKGNNGDRGRLLVTNLRILWHSLALSRVNVSVGYNCILNITTRTANSKLRGQTEALYILTKCNSTRFEFIFTNLVPGSPRLFTSVMAVHRAYETSKMYRDFKLRSALIQNKQLRLLPQEHVYDKINGVWNLSSDQGNLGTFFITNERIVWHANMNDSFNVSIPYLQIRSIKIRDSKFGLALVIESSQQSGGYVLGFKIDPVEKLQESVKEINSLHKVYSASPIFGVDYEMEEKPQPLEALTVEQIQDDVEIDSDGHTDAFVAYFADGNKQQDREPVFSEELGLAIEKLKDGFTLQGLWEVMS [V185E]	with no effect
MSVLDALWEDRDVRFDLSAQQMKTRPGEVLIDCLDSIEDTKGNNGDRGRLLVTNLRILWHSLALSRVNVSVGYNCILNITTRTANSKLRGQTEALYILTKCNSTRFEFIFTNLVPGSPRLFTSVMAVHRAYETSKMYRDFKLRSALIQNKQLRLLPQEHVYDKINGVWNLSSDQGNLGTFFITNKRIVWHANMNDSFNVSIPYLQIRSIKIRDSKFGLALVIESSQQSGGYVLGFKIDPVEKLQESVKEINSLHKVYSASPIFGVDYEMEEKPQPLEALTVEQIQDDVEIDSDGHTDAFVAYFADGNKQQDREPVFSEELGLAIEKLKDGFTLQGLWEVMS [V185K]	with no effect
MSVLDALWEDRDVRFDLSAQQMKTRPGEVLIDCLDSIEDTKGNNGDRGRLLVTNLRILWHSLALSRVNVSVGYNCILNITTRTANSKLRGQTEALYILTKCNSTRFEFIFTNLVPGSPRLFTSVMAVHRAYETSKMYRDFKLRSALIQNKQLRLLPQEHVYDKINGVWNLSSDQGNLGTFFITNVAIVWHANMNDSFNVSIPYLQIRSIKIRDSKFGLALVIESSQQSGGYVLGFKIDPVEKLQESVKEINSLHKVYSASPIFGVDYEMEEKPQPLEALTVEQIQDDVEIDSDGHTDAFVAYFADGNKQQDREPVFSEELGLAIEKLKDGFTLQGLWEVMS [R186A]	with no effect
MSVLDALWEDRDVRFDLSAQQMKTRPGEVLIDCLDSIEDTKGNNGDRGRLLVTNLRILWHSLALSRVNVSVGYNCILNITTRTANSKLRGQTEALYILTKCNSTRFEFIFTNLVPGSPRLFTSVMAVHRAYETSKMYRDFKLRSALIQNKQLRLLPQEHVYDKINGVWNLSSDQGNLGTFFITNVEIVWHANMNDSFNVSIPYLQIRSIKIRDSKFGLALVIESSQQSGGYVLGFKIDPVEKLQESVKEINSLHKVYSASPIFGVDYEMEEKPQPLEALTVEQIQDDVEIDSDGHTDAFVAYFADGNKQQDREPVFSEELGLAIEKLKDGFTLQGLWEVMS [R186E]	disrupting interaction strength
MSVLDALWEDRDVRFDLSAQQMKTRPGEVLIDCLDSIEDTKGNNGDRGRLLVTNLRILWHSLALSRVNVSVGYNCILNITTRTANSKLRGQTEALYILTKCNSTRFEFIFTNLVPGSPRLFTSVMAVHRAYETSKMYRDFKLRSALIQNKQLRLLPQEHVYDKINGVWNLSSDQGNLGTFFITNVKIVWHANMNDSFNVSIPYLQIRSIKIRDSKFGLALVIESSQQSGGYVLGFKIDPVEKLQESVKEINSLHKVYSASPIFGVDYEMEEKPQPLEALTVEQIQDDVEIDSDGHTDAFVAYFADGNKQQDREPVFSEELGLAIEKLKDGFTLQGLWEVMS [R186K]	disrupting interaction strength
MSVLDALWEDRDVRFDLSAQQMKTRPGEVLIDCLDSIEDTKGNNGDRGRLLVTNLRILWHSLALSRVNVSVGYNCILNITTRTANSKLRGQTEALYILTKCNSTRFEFIFTNLVPGSPRLFTSVMAVHRAYETSKMYRDFKLRSALIQNKQLRLLPQEHVYDKINGVWNLSSDQGNLGTFFITNVRAVWHANMNDSFNVSIPYLQIRSIKIRDSKFGLALVIESSQQSGGYVLGFKIDPVEKLQESVKEINSLHKVYSASPIFGVDYEMEEKPQPLEALTVEQIQDDVEIDSDGHTDAFVAYFADGNKQQDREPVFSEELGLAIEKLKDGFTLQGLWEVMS [I187A]	with no effect

From IntAct's records for PubMed 29039417
